These results are taken from patent publication US20250302956A1.

Common to all, as to experiment: cell-based or functional assay
Assay [1] addresses LLMWITQC (SEQ ID NO: 1) presented by HLA-A02 on T2 cells (human).
The target in assay [2] is LAMWITQC (SEQ ID NO: 2) presented by HLA-A02 on T2 cells (human).
Assay [3] has as its target NY-ESO-1 peptide … (SEQ ID NO: 40) presented by HLA-A02 on T2 cells (human).

As to native 1G4-α95: TS TCR, the average log 2FC in PresentER library coculture screen, CD8-native 1G4-α95: TS cells (log2 fold change) is -5 in assay [1], -4 in assay [2] and -6.1 in assay [3].
